Experimental data: the supplement of paper PMC9233669
This sample holds only a part of the variants without activity.

Legend:
[1] = test system: biotinyl-Trp-oxazolone; experiment: self-aminoacylation, catalytic enhancement (BWO) (fold over background); higher = more active; k-Seq, kA / k0A0; sequences stand for … in GGGAAUGGAUCCACAUCUACGAAUUC…UUCACUGCAGACUUGACGAAGCUG
Summary of the method: (§1)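 Mutagenized RNA pools with a 21-nt variable region (0.43 μM) were reacted with each biotinyl-aminoacyl-oxazolone at 2–1250 μM for 90 minutes at room temperature, in 50 μL HEPES/NaCl/KCl/MgCl2/CaCl2 buffer containing 5% acetonitrile at pH 6.9–7.0. RNA captured on streptavidin was quantified by triplicate qPCR and by Illumina sequencing. The fraction reacted for each sequence was fit to a pseudo-first-order model with bootstrapping, and catalytic enhancement is the median kA divided by the uncatalyzed rate, taken as the low-activity peak of a bimodal Gaussian fit.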

[2] = test system: biotinyl-Leu-oxazolone; experiment: self-aminoacylation, catalytic enhancement (BLO) (fold over background); higher = more active; k-Seq, kA / k0A0; sequences stand for … in GGGAAUGGAUCCACAUCUACGAAUUC…UUCACUGCAGACUUGACGAAGCUG
Summary of the method: as §1

[3] = test system: biotinyl-Ile-oxazolone; experiment: self-aminoacylation, catalytic enhancement (BIO) (fold over background); higher = more active; k-Seq, kA / k0A0; sequences stand for … in GGGAAUGGAUCCACAUCUACGAAUUC…UUCACUGCAGACUUGACGAAGCUG
Summary of the method: as §1

[4] = test system: biotinyl-Met-oxazolone; experiment: self-aminoacylation, catalytic enhancement (BMO) (fold over background); higher = more active; k-Seq, kA / k0A0; sequences stand for … in GGGAAUGGAUCCACAUCUACGAAUUC…UUCACUGCAGACUUGACGAAGCUG
Summary of the method: as §1

[5] = test system: biotinyl-Phe-oxazolone; experiment: self-aminoacylation, catalytic enhancement (BFO) (fold over background); higher = more active; k-Seq, kA / k0A0; sequences stand for … in GGGAAUGGAUCCACAUCUACGAAUUC…UUCACUGCAGACUUGACGAAGCUG
Summary of the method: as §1

[6] = test system: biotinyl-Val-oxazolone; experiment: self-aminoacylation, catalytic enhancement (BVO) (fold over background); higher = more active; k-Seq, kA / k0A0; sequences stand for … in GGGAAUGGAUCCACAUCUACGAAUUC…UUCACUGCAGACUUGACGAAGCUG
Summary of the method: as §1

Sequence | self-aminoacylation [1] | self-aminoacylation [2] | self-aminoacylation [3] | self-aminoacylation [4] | self-aminoacylation [5] | self-aminoacylation [6]
AUUCACCUAUGUCUUCGGGUG [Fam2.2 aminoacylation ribozyme variant] | 2.35 | 2.67 | 2.11 | 2.42 | 14.7 | 2.02
AUUCACCUCGAUCAUCGGGUG [Fam2.2 aminoacylation ribozyme variant] | 3.99 | 5.94 | 3.11 | 4.77 | 39.4 | 3.18
AUUCACCUCGGACAUCGGGUG [Fam2.2 aminoacylation ribozyme variant] | 5.08 | 6.78 | 3.09 | 4.76 | 40.1 | 4.74
AUUCACCUCGGUAAUCGGGUG [Fam2.2 aminoacylation ribozyme variant] | 4.41 | 6.13 | 4.01 | 4.55 | 31.8 | 3.32
AUUCACCUCGGUCAGCGGGUG [Fam2.2 aminoacylation ribozyme variant] | 4.8 | 5.84 | 3.13 | 4.51 | 28.3 | 3.37
AUUCACCUCGGUCAUCGCGUG [Fam2.2 aminoacylation ribozyme variant] | 12.9 | 16 | 6.77 | 11.4 | 109 | 7.67
AUUCACCUCGGUCAUCGGGGG [Fam2.2 aminoacylation ribozyme variant] | 2.72 | 2.98 | 2.66 | 3.13 | 12.8 | 2.67
AUUCACCUCGGUUAUCGGGUG [Fam2.2 aminoacylation ribozyme variant] | 7.82 | 7.66 | 4.48 | 5.58 | 41.1 | 4.58
AUUCACCUCUGUCAUCGGGUG [Fam2.2 aminoacylation ribozyme variant] | 7.31 | 10.1 | 3.8 | 7.32 | 54.5 | 4.06
AUUCACCUGGCUCAUCGGGUG [Fam2.2 aminoacylation ribozyme variant] | 2.44 | 3.2 | 2.18 | 1.79 | 18.3 | 3.81
AUUCACCUGGGGCAUCGGGUG [Fam2.2 aminoacylation ribozyme variant] | 7.38 | 5.93 | 4.42 | 5.8 | 36.1 | 6.59
AUUCACCUGGGUCAUCGGGUA [Fam2.2 aminoacylation ribozyme variant] | 14.8 | 22.3 | 8.3 | 18.6 | 47.8 | 10.6
AUUCACCUGGGUGAUCGGGUG [Fam2.2 aminoacylation ribozyme variant] | 6.7 | 4.89 | 3.9 | 4.39 | 24.1 | 4.45
AUUCACCUGGGUUAUCGGGUG [Fam2.2 aminoacylation ribozyme variant] | 5.56 | 6.24 | 3.35 | 6.06 | 36.6 | 4
AUUCACCUUCGUCAUCGGGUG [Fam2.2 aminoacylation ribozyme variant] | 2.79 | 3.28 | 2.12 | 2.3 | 14.9 | 2.38
AUUCACCUUGGUCAUCAGGUG [Fam2.2 aminoacylation ribozyme variant] | 2.15 | 2.49 | 1.7 | 1.9 | 7.28 | 1.39
AUUCACCUUGGUCAUCGGGUA [Fam2.2 aminoacylation ribozyme variant] | 2.75 | 2.64 | 2.5 | 3.09 | 5.21 | 2.98
AUUCACCUUGGUCCUCGGGUG [Fam2.2 aminoacylation ribozyme variant] | 5.17 | 8.12 | 3.53 | 5.93 | 39.2 | 3.67
AUUCACGUACGUCAUCGGGUG [Fam2.2 aminoacylation ribozyme variant] | 9.47 | 12.8 | 6.46 | 12.2 | 79.8 | 6.9
AUUCACGUAGGUAAUCGGGUG [Fam2.2 aminoacylation ribozyme variant] | 4.53 | 5.06 | 2.91 | 3.84 | 23.1 | 3.22
AUUCACGUAGGUCAUCAGGUG [Fam2.2 aminoacylation ribozyme variant] | 2.88 | 2.7 | 1.99 | 2.77 | 5.34 | 2.24
AUUCACGUAGGUCCUCGGGUG [Fam2.2 aminoacylation ribozyme variant] | 8.52 | 12.1 | 5.5 | 9.66 | 64.9 | 5.83
AUUCACUUAGGGCAUCGGGUG [Fam2.2 aminoacylation ribozyme variant] | 3.48 | 3.98 | 2.91 | 3.03 | 24.5 | 2.72
AUUCACUUAGGUCAUCGGGUC [Fam2.2 aminoacylation ribozyme variant] | 1.06 | 0.969 | 1.04 | 1.22 | 0.826 | 1.2
AUUCACUUAGGUCAUCGGUUG [Fam2.2 aminoacylation ribozyme variant] | 0.519 | 0.901 | 0.87 | 0.764 | 0.69 | 0.831
